B1: HEEH_KT_rd6_3546 (parent)
chain: SEEDKEREHWERLNRDFELRVLDTTFIAHHAEEVIKLLRWLEK

Variants of: B1
Assay: folding stability dG (cDNA display proteolysis); higher = more stable
Settings: PBS, room temperature

First: SEEDKEREHWERLNRDFELRNLDTTFIAHHAEEVIKLLRWLEK [V21N]
Second: SEEDKEREHWERLNRDFELRWLDTTFIAHHAEEVIKLLRWLEK [V21W]
The “folding stability dG” value of the first is lower: 1.23 kcal/mol for the first, 1.95 kcal/mol for the second.

Going from SEEDKEREHWERLNRDFELRQLDTTFIAHHAEEVIKLLRWLEK [V21Q] to SEEDKEREHWERLNRDFELRMLDTTFIAHHAEEVIKLLRWLEK [V21M], the “folding stability dG” value rises from 1.3 kcal/mol to 1.41 kcal/mol.

First: SEEDKEREHWERLNRDFELRALDTTFIAHHAEEVIKLLRWLEK [V21A]
Second: SEEDKEREHWERLNRDFELRPLDTTFIAHHAEEVIKLLRWLEK [V21P]
The “folding stability dG” value of the first is higher: 1.33 kcal/mol for the first, 0.85 kcal/mol for the second.

Going from SEEDKEREHWERLNRDFELRFLDTTFIAHHAEEVIKLLRWLEK [V21F] to SEEDKEREHWERLNRDFELRKLDTTFIAHHAEEVIKLLRWLEK [V21K], the “folding stability dG” value falls from 1.72 kcal/mol to 1.03 kcal/mol.

Going from SEEDKEREHWERLNRDFELRTLDTTFIAHHAEEVIKLLRWLEK [V21T] to SEEDKEREHWERLNRDFELRYLDTTFIAHHAEEVIKLLRWLEK [V21Y], the “folding stability dG” value rises from 1.27 kcal/mol to 1.5 kcal/mol.

First: SEEDKEREHWERLNRDFELRLLDTTFIAHHAEEVIKLLRWLEK [V21L]
Second: SEEDKEREHWERLNRDFELRGLDTTFIAHHAEEVIKLLRWLEK [V21G]
The “folding stability dG” value of the first is higher: 1.85 kcal/mol for the first, 1.49 kcal/mol for the second.

First: SEEDKEREHWERLNRDFELRDLDTTFIAHHAEEVIKLLRWLEK [V21D]
Second: SEEDKEREHWERLNRDFELRELDTTFIAHHAEEVIKLLRWLEK [V21E]
The “folding stability dG” value of the first is higher: 1.09 kcal/mol for the first, 1.06 kcal/mol for the second.

First: SEEDKEREHWERLNRDFELRILDTTFIAHHAEEVIKLLRWLEK [V21I]
Second: SEEDKEREHWERLNRDFELRHLDTTFIAHHAEEVIKLLRWLEK [V21H]
The “folding stability dG” value of the first is higher: 1.84 kcal/mol for the first, 1.22 kcal/mol for the second.

First: SEEDKEREHWERLNRDFELRRLDTTFIAHHAEEVIKLLRWLEK [V21R]
Second: SEEDKEREHWERLNRDFELRSLDTTFIAHHAEEVIKLLRWLEK [V21S]
The “folding stability dG” value of the first is higher: 1.41 kcal/mol for the first, 1.16 kcal/mol for the second.

Compared with SEEDKEREHWERLNRDFELRVLDQTFIAHHAEEVIKLLRWLEK [T24Q], SEEDKEREHWERLNRDFELRVLDVTFIAHHAEEVIKLLRWLEK [T24V] is higher in “folding stability dG” value: 1.02 kcal/mol for the first, 2.13 kcal/mol for the second.

Going from SEEDKEREHWERLNRDFELRVLDDTFIAHHAEEVIKLLRWLEK [T24D] to SEEDKEREHWERLNRDFELRVLDPTFIAHHAEEVIKLLRWLEK [T24P], the “folding stability dG” value rises from 0.925 kcal/mol to 1.22 kcal/mol.

First: SEEDKEREHWERLNRDFELRVLDWTFIAHHAEEVIKLLRWLEK [T24W]
Second: SEEDKEREHWERLNRDFELRVLDSTFIAHHAEEVIKLLRWLEK [T24S]
The “folding stability dG” value of the first is higher: 2.13 kcal/mol for the first, 1.06 kcal/mol for the second.

First: SEEDKEREHWERLNRDFELRVLDMTFIAHHAEEVIKLLRWLEK [T24M]
Second: SEEDKEREHWERLNRDFELRVLDFTFIAHHAEEVIKLLRWLEK [T24F]
The “folding stability dG” value of the first is lower: 1.82 kcal/mol for the first, 2.01 kcal/mol for the second.

Going from SEEDKEREHWERLNRDFELRVLDITFIAHHAEEVIKLLRWLEK [T24I] to SEEDKEREHWERLNRDFELRVLDLTFIAHHAEEVIKLLRWLEK [T24L], the “folding stability dG” value falls from 2.24 kcal/mol to 2.19 kcal/mol.

First: SEEDKEREHWERLNRDFELRVLDKTFIAHHAEEVIKLLRWLEK [T24K]
Second: SEEDKEREHWERLNRDFELRVLDETFIAHHAEEVIKLLRWLEK [T24E]
The “folding stability dG” value of the first is higher: 1.07 kcal/mol for the first, 0.926 kcal/mol for the second.

Going from SEEDKEREHWERLNRDFELRVLDATFIAHHAEEVIKLLRWLEK [T24A] to SEEDKEREHWERLNRDFELRVLDNTFIAHHAEEVIKLLRWLEK [T24N], the “folding stability dG” value falls from 1.41 kcal/mol to 1.28 kcal/mol.

First: SEEDKEREHWERLNRDFELRVLDRTFIAHHAEEVIKLLRWLEK [T24R]
Second: SEEDKEREHWERLNRDFELRVLDGTFIAHHAEEVIKLLRWLEK [T24G]
The “folding stability dG” value of the first is higher: 1.25 kcal/mol for the first, 0.995 kcal/mol for the second.

Compared with SEEDKEREHWERLNRDFELRVLDHTFIAHHAEEVIKLLRWLEK [T24H], SEEDKEREHWERLNRDFELRVLDYTFIAHHAEEVIKLLRWLEK [T24Y] is higher in “folding stability dG” value: 1.13 kcal/mol for the first, 1.79 kcal/mol for the second.

Going from SEEDKEREHWERLNRDFWLRVLDTTFIAHHAEEVIKLLRWLEK [E18W] to SEEDKEREHWERLNRDFVLRVLDTTFIAHHAEEVIKLLRWLEK [E18V], the “folding stability dG” value falls from 2.88 kcal/mol to 2.17 kcal/mol.

Compared with SEEDKEREHWERLNRDFYLRVLDTTFIAHHAEEVIKLLRWLEK [E18Y], SEEDKEREHWERLNRDFELGVLDTTFIAHHAEEVIKLLRWLEK [R20G] is lower in “folding stability dG” value: 2.4 kcal/mol for the first, 1.29 kcal/mol for the second.

First: SEEDKEREHWERLNRDFELHVLDTTFIAHHAEEVIKLLRWLEK [R20H]
Second: SEEDKEREHWERLNRDFELMVLDTTFIAHHAEEVIKLLRWLEK [R20M]
The “folding stability dG” value of the first is lower: 1.39 kcal/mol for the first, 1.63 kcal/mol for the second.

Going from SEEDKEREHWERLNRDFELFVLDTTFIAHHAEEVIKLLRWLEK [R20F] to SEEDKEREHWERLNRDFELCVLDTTFIAHHAEEVIKLLRWLEK [R20C], the “folding stability dG” value rises from 2.21 kcal/mol to 2.37 kcal/mol.

Compared with SEEDKEREHWERLNRDFELVVLDTTFIAHHAEEVIKLLRWLEK [R20V], SEEDKEREHWERLNRDFELIVLDTTFIAHHAEEVIKLLRWLEK [R20I] is higher in “folding stability dG” value: 1.68 kcal/mol for the first, 1.99 kcal/mol for the second.

Going from SEEDKEREHWERLNRDFELNVLDTTFIAHHAEEVIKLLRWLEK [R20N] to SEEDKEREHWERLNRDFELPVLDTTFIAHHAEEVIKLLRWLEK [R20P], the “folding stability dG” value falls from 1.23 kcal/mol to 0.684 kcal/mol.

Going from SEEDKEREHWERLNRDFELEVLDTTFIAHHAEEVIKLLRWLEK [R20E] to SEEDKEREHWERLNRDFELQVLDTTFIAHHAEEVIKLLRWLEK [R20Q], the “folding stability dG” value rises from 0.819 kcal/mol to 1.05 kcal/mol.

First: SEEDKEREHWERLNRDFELTVLDTTFIAHHAEEVIKLLRWLEK [R20T]
Second: SEEDKEREHWERLNRDFELAVLDTTFIAHHAEEVIKLLRWLEK [R20A]
The “folding stability dG” value of the first is higher: 1.4 kcal/mol for the first, 1.04 kcal/mol for the second.

Compared with SEEDKEREHWERLNRDFELSVLDTTFIAHHAEEVIKLLRWLEK [R20S], SEEDKEREHWERLNRDFELDVLDTTFIAHHAEEVIKLLRWLEK [R20D] is lower in “folding stability dG” value: 1.35 kcal/mol for the first, 1.18 kcal/mol for the second.

First: SEEDKEREHWERLNRDFELKVLDTTFIAHHAEEVIKLLRWLEK [R20K]
Second: SEEDKEREHWERLNRDFELLVLDTTFIAHHAEEVIKLLRWLEK [R20L]
The “folding stability dG” value of the first is lower: 1.36 kcal/mol for the first, 1.93 kcal/mol for the second.

Compared with SEEDKEREHWERLNRDFELYVLDTTFIAHHAEEVIKLLRWLEK [R20Y], SEEDKEREHWERLNRDFELWVLDTTFIAHHAEEVIKLLRWLEK [R20W] is lower in “folding stability dG” value: 2.39 kcal/mol for the first, 2.38 kcal/mol for the second.

For SEEDKEREHWERLNRDFELRVLPTTFIAHHAEEVIKLLRWLEK [D23P], the “folding stability dG” value was 1.35 kcal/mol.
